Measurements as given in patent US20140087995A1 (published 2014).
Values belong to the binder of their own block, whether it stands above or below them. Numbered stars: 1 amine (or outer) side, 2 acyl side, 3 side chain; on linkers, the order of the positions; unused ones are H or OH. Bridge positions count the residues as written; N and C are the ends. Side chains are listed from the residue outwards. Ends that are not written are not given here. * marks the point of attachment. C20 diacid = O=C(O)CCCCCCCCCCCCCCCCCCC(=O)*; γGlu = O=C(O)[C@H](CCC(=O)[*:2])N[*:1]; AEEA = NCCOCCOCC(=O)O

Biological target: T1, human calcitonin receptor (human, UniProt P30988 25-474)
T1 construct: whole, on cells; Used as cell membranes prepared from the transfected BHK cells (Assay VII), not as intact cells; also called hCTR; hCT
T1 sequence (looked up): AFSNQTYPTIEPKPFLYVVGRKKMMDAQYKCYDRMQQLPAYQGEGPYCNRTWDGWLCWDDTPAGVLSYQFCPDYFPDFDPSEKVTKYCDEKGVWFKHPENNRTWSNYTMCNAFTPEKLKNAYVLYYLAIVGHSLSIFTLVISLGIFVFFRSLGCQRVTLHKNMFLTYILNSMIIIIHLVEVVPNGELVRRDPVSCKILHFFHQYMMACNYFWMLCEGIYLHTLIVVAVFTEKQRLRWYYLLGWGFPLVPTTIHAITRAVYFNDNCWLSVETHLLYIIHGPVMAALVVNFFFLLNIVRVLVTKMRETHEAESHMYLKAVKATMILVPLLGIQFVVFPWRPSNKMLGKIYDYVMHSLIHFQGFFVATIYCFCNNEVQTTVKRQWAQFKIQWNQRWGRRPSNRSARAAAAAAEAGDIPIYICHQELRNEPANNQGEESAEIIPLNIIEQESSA
Experiment: SPA competition against 125I-calcitonin, membranes with human calcitonin receptor (Assay VII)
Summary of the method: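 BHK hCTR membranes 35 ng/μL + SPA beads 0.05 mg/well; buffer 50 mM Hepes pH 7.4, 1 mM CaCl2, 5 mM MgCl₂, 0.1% OA, 0.02% Tween20. 120 min, 25° C., shaking. Scintillation count; IC50 by one-site binding competition.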

IC50: 19.9 nM
B1: N^α1-[(4S)-4-carboxy-4-(19-carboxynonadecanoylamino)butanoyl]-[Glu14,Arg17,Pro21,Pro25,Pro28,Pro29]-h-amylin (peptide)
peptide: {C20 diacid-γGlu}-KCNTATCATQRLAEFLRHSSPNFGPILPPTNVGSNTY-NH2
modifications: disulfide 2-7
SMILES: CC[C@H](C)[C@H](NC(=O)[C@@H]1CCCN1C(=O)CNC(=O)[C@H](Cc1ccccc1)NC(=O)[C@H](CC(N)=O)NC(=O)[C@@H]1CCCN1C(=O)[C@H](CO)NC(=O)[C@H](CO)NC(=O)[C@H](Cc1c[nH]cn1)NC(=O)[C@H](CCCNC(=N)N)NC(=O)[C@H](CC(C)C)NC(=O)[C@H](Cc1ccccc1)NC(=O)[C@H](CCC(=O)O)NC(=O)[C@H](C)NC(=O)[C@H](CC(C)C)NC(=O)[C@H](CCCNC(=N)N)NC(=O)[C@H](CCC(N)=O)NC(=O)[C@@H](NC(=O)[C@H](C)NC(=O)[C@@H]1CSSC[C@H](NC(=O)[C@H](CCCCN)NC(=O)CC[C@H](NC(=O)CCCCCCCCCCCCCCCCCCC(=O)O)C(=O)O)C(=O)N[C@@H](CC(N)=O)C(=O)N[C@@H]([C@@H](C)O)C(=O)N[C@@H](C)C(=O)N[C@@H]([C@@H](C)O)C(=O)N1)[C@@H](C)O)C(=O)N[C@@H](CC(C)C)C(=O)N1CCC[C@H]1C(=O)N1CCC[C@H]1C(=O)N[C@H](C(=O)N[C@@H](CC(N)=O)C(=O)N[C@H](C(=O)NCC(=O)N[C@@H](CO)C(=O)N[C@@H](CC(N)=O)C(=O)N[C@H](C(=O)N[C@@H](Cc1ccc(O)cc1)C(N)=O)[C@@H](C)O)C(C)C)[C@@H](C)O
notes: also called compound 6

IC50: 4.87 nM
B2: N^ε-[(4S)-4-carboxy-4-(19-carboxynonadecanoylamino)butanoyl]Lys[Arg1,Arg17,Pro21,Pro27,His35]-h-amylin (peptide)
peptide: K([γGlu-C20 diacid])RCNTATCATQRLANFLRHSSPNFGAIPSSTNVGSHTY-NH2
modifications: disulfide 3-8; N-terminus assumed
SMILES: CC[C@H](C)[C@H](NC(=O)[C@H](C)NC(=O)CNC(=O)[C@H](Cc1ccccc1)NC(=O)[C@H](CC(N)=O)NC(=O)[C@@H]1CCCN1C(=O)[C@H](CO)NC(=O)[C@H](CO)NC(=O)[C@H](Cc1c[nH]cn1)NC(=O)[C@H](CCCNC(=N)N)NC(=O)[C@H](CC(C)C)NC(=O)[C@H](Cc1ccccc1)NC(=O)[C@H](CC(N)=O)NC(=O)[C@H](C)NC(=O)[C@H](CC(C)C)NC(=O)[C@H](CCCNC(=N)N)NC(=O)[C@H](CCC(N)=O)NC(=O)[C@@H](NC(=O)[C@H](C)NC(=O)[C@@H]1CSSC[C@H](NC(=O)[C@H](CCCNC(=N)N)NC(=O)[C@@H](N)CCCCNC(=O)CC[C@H](NC(=O)CCCCCCCCCCCCCCCCCCC(=O)O)C(=O)O)C(=O)N[C@@H](CC(N)=O)C(=O)N[C@@H]([C@@H](C)O)C(=O)N[C@@H](C)C(=O)N[C@@H]([C@@H](C)O)C(=O)N1)[C@@H](C)O)C(=O)N1CCC[C@H]1C(=O)N[C@@H](CO)C(=O)N[C@@H](CO)C(=O)N[C@H](C(=O)N[C@@H](CC(N)=O)C(=O)N[C@H](C(=O)NCC(=O)N[C@@H](CO)C(=O)N[C@@H](Cc1c[nH]cn1)C(=O)N[C@H](C(=O)N[C@@H](Cc1ccc(O)cc1)C(N)=O)[C@@H](C)O)C(C)C)[C@@H](C)O
notes: also called compound 44

IC50: 15.5 nM
B3: N^-1-[(4S)-4-carboxy-4-(19-carboxynonadecanoylamino)butanoyl]-Gly[Arg1,Arg17,Pro21,Pro27,His35]-h-amylin (peptide)
peptide: {C20 diacid-γGlu}-GRCNTATCATQRLANFLRHSSPNFGAIPSSTNVGSHTY-NH2
modifications: disulfide 3-8
SMILES: CC[C@H](C)[C@H](NC(=O)[C@H](C)NC(=O)CNC(=O)[C@H](Cc1ccccc1)NC(=O)[C@H](CC(N)=O)NC(=O)[C@@H]1CCCN1C(=O)[C@H](CO)NC(=O)[C@H](CO)NC(=O)[C@H](Cc1c[nH]cn1)NC(=O)[C@H](CCCNC(=N)N)NC(=O)[C@H](CC(C)C)NC(=O)[C@H](Cc1ccccc1)NC(=O)[C@H](CC(N)=O)NC(=O)[C@H](C)NC(=O)[C@H](CC(C)C)NC(=O)[C@H](CCCNC(=N)N)NC(=O)[C@H](CCC(N)=O)NC(=O)[C@@H](NC(=O)[C@H](C)NC(=O)[C@@H]1CSSC[C@H](NC(=O)[C@H](CCCNC(=N)N)NC(=O)CNC(=O)CC[C@H](NC(=O)CCCCCCCCCCCCCCCCCCC(=O)O)C(=O)O)C(=O)N[C@@H](CC(N)=O)C(=O)N[C@@H]([C@@H](C)O)C(=O)N[C@@H](C)C(=O)N[C@@H]([C@@H](C)O)C(=O)N1)[C@@H](C)O)C(=O)N1CCC[C@H]1C(=O)N[C@@H](CO)C(=O)N[C@@H](CO)C(=O)N[C@H](C(=O)N[C@@H](CC(N)=O)C(=O)N[C@H](C(=O)NCC(=O)N[C@@H](CO)C(=O)N[C@@H](Cc1c[nH]cn1)C(=O)N[C@H](C(=O)N[C@@H](Cc1ccc(O)cc1)C(N)=O)[C@@H](C)O)C(C)C)[C@@H](C)O
notes: also called compound 47

IC50: 9.53 nM
B4: N^-1-[(4S)-4-carboxy-4-(19-carboxynonadecanoylamino)butanoyl]-Gly[Arg1,Arg17,Pro21,Pro27]-h-amylin (peptide)
peptide: {C20 diacid-γGlu}-GRCNTATCATQRLANFLRHSSPNFGAIPSSTNVGSNTY-NH2
modifications: disulfide 3-8
SMILES: CC[C@H](C)[C@H](NC(=O)[C@H](C)NC(=O)CNC(=O)[C@H](Cc1ccccc1)NC(=O)[C@H](CC(N)=O)NC(=O)[C@@H]1CCCN1C(=O)[C@H](CO)NC(=O)[C@H](CO)NC(=O)[C@H](Cc1c[nH]cn1)NC(=O)[C@H](CCCNC(=N)N)NC(=O)[C@H](CC(C)C)NC(=O)[C@H](Cc1ccccc1)NC(=O)[C@H](CC(N)=O)NC(=O)[C@H](C)NC(=O)[C@H](CC(C)C)NC(=O)[C@H](CCCNC(=N)N)NC(=O)[C@H](CCC(N)=O)NC(=O)[C@@H](NC(=O)[C@H](C)NC(=O)[C@@H]1CSSC[C@H](NC(=O)[C@H](CCCNC(=N)N)NC(=O)CNC(=O)CC[C@H](NC(=O)CCCCCCCCCCCCCCCCCCC(=O)O)C(=O)O)C(=O)N[C@@H](CC(N)=O)C(=O)N[C@@H]([C@@H](C)O)C(=O)N[C@@H](C)C(=O)N[C@@H]([C@@H](C)O)C(=O)N1)[C@@H](C)O)C(=O)N1CCC[C@H]1C(=O)N[C@@H](CO)C(=O)N[C@@H](CO)C(=O)N[C@H](C(=O)N[C@@H](CC(N)=O)C(=O)N[C@H](C(=O)NCC(=O)N[C@@H](CO)C(=O)N[C@@H](CC(N)=O)C(=O)N[C@H](C(=O)N[C@@H](Cc1ccc(O)cc1)C(N)=O)[C@@H](C)O)C(C)C)[C@@H](C)O
notes: also called compound 46

IC50: 2.64 nM
B5: N^ε1-[2-[2-[2-(19-carboxynonadecanoylamino)ethoxy]ethoxy]acetyl]-[Arg17,Pro21,Pro27]-h-amylin (peptide)
peptide: K([AEEA-C20 diacid])CNTATCATQRLANFLRHSSPNFGAIPSSTNVGSNTY-NH2
modifications: disulfide 2-7; N-terminus assumed
SMILES: CC[C@H](C)[C@H](NC(=O)[C@H](C)NC(=O)CNC(=O)[C@H](Cc1ccccc1)NC(=O)[C@H](CC(N)=O)NC(=O)[C@@H]1CCCN1C(=O)[C@H](CO)NC(=O)[C@H](CO)NC(=O)[C@H](Cc1c[nH]cn1)NC(=O)[C@H](CCCNC(=N)N)NC(=O)[C@H](CC(C)C)NC(=O)[C@H](Cc1ccccc1)NC(=O)[C@H](CC(N)=O)NC(=O)[C@H](C)NC(=O)[C@H](CC(C)C)NC(=O)[C@H](CCCNC(=N)N)NC(=O)[C@H](CCC(N)=O)NC(=O)[C@@H](NC(=O)[C@H](C)NC(=O)[C@@H]1CSSC[C@H](NC(=O)[C@@H](N)CCCCNC(=O)COCCOCCNC(=O)CCCCCCCCCCCCCCCCCCC(=O)O)C(=O)N[C@@H](CC(N)=O)C(=O)N[C@@H]([C@@H](C)O)C(=O)N[C@@H](C)C(=O)N[C@@H]([C@@H](C)O)C(=O)N1)[C@@H](C)O)C(=O)N1CCC[C@H]1C(=O)N[C@@H](CO)C(=O)N[C@@H](CO)C(=O)N[C@H](C(=O)N[C@@H](CC(N)=O)C(=O)N[C@H](C(=O)NCC(=O)N[C@@H](CO)C(=O)N[C@@H](CC(N)=O)C(=O)N[C@H](C(=O)N[C@@H](Cc1ccc(O)cc1)C(N)=O)[C@@H](C)O)C(C)C)[C@@H](C)O
notes: also called compound 43

IC50: 21.3 nM
B6: N^ε1-[2-[2-[2-[[(4S)-4-carboxy-4-(19-carboxynonadecanoylamino)butanoyl]amino]ethoxy]ethoxy]acetyl]-[Arg17,Pro21,Pro27]-h-amylin (peptide)
peptide: K([AEEA-γGlu-C20 diacid])CNTATCATQRLANFLRHSSPNFGAIPSSTNVGSNTY-NH2
modifications: disulfide 2-7; N-terminus assumed
SMILES: CC[C@H](C)[C@H](NC(=O)[C@H](C)NC(=O)CNC(=O)[C@H](Cc1ccccc1)NC(=O)[C@H](CC(N)=O)NC(=O)[C@@H]1CCCN1C(=O)[C@H](CO)NC(=O)[C@H](CO)NC(=O)[C@H](Cc1c[nH]cn1)NC(=O)[C@H](CCCNC(=N)N)NC(=O)[C@H](CC(C)C)NC(=O)[C@H](Cc1ccccc1)NC(=O)[C@H](CC(N)=O)NC(=O)[C@H](C)NC(=O)[C@H](CC(C)C)NC(=O)[C@H](CCCNC(=N)N)NC(=O)[C@H](CCC(N)=O)NC(=O)[C@@H](NC(=O)[C@H](C)NC(=O)[C@@H]1CSSC[C@H](NC(=O)[C@@H](N)CCCCNC(=O)COCCOCCNC(=O)CC[C@H](NC(=O)CCCCCCCCCCCCCCCCCCC(=O)O)C(=O)O)C(=O)N[C@@H](CC(N)=O)C(=O)N[C@@H]([C@@H](C)O)C(=O)N[C@@H](C)C(=O)N[C@@H]([C@@H](C)O)C(=O)N1)[C@@H](C)O)C(=O)N1CCC[C@H]1C(=O)N[C@@H](CO)C(=O)N[C@@H](CO)C(=O)N[C@H](C(=O)N[C@@H](CC(N)=O)C(=O)N[C@H](C(=O)NCC(=O)N[C@@H](CO)C(=O)N[C@@H](CC(N)=O)C(=O)N[C@H](C(=O)N[C@@H](Cc1ccc(O)cc1)C(N)=O)[C@@H](C)O)C(C)C)[C@@H](C)O
notes: also called compound 41

IC50: 102 nM
B7: N^α1-[2-[2-[2-[[2-[2-[2-[[(4S)-4-carboxy-4-(19-carboxynonadecanoylamino)butanoyl]amino]ethoxy]ethoxy]acetyl]amino]ethoxy]ethoxy]acetyl]-[Arg17,Pro21,Pro27]-h-am … (peptide)
peptide: KCNTATCATQRLANFLRHSSPNFGAIPSSTNVGSNTY
modifications: C20 diacid-gGlu-2xOEG on the alpha amino group of the N-terminal Lys1; disulfide Cys2-Cys7; C-terminal amide
notes: also called compound 24
